Source: the supplement of paper PMC10567573
± gives the standard deviation.

Test: protein stability index of a GFP-peptide fusion (GPS, HEK-293T) (PSI 1-6); higher = more stable
[1] = treatment: DMSO, c terminus: a fixed tail appended
[2] = treatment: MLN4924 1 uM, 8 h, c terminus: a fixed tail appended
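Note: 24-mer peptide tiles fused after GFP, lentivirally expressed, FACS-sorted into six equal bins by GFP/DsRed ratio, decoded by Illumina sequencing, PSI is the read-weighted mean bin number.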

| Sequence | protein stability index [1] | protein stability index [2] | protein stability index (treatment: DMSO, c terminus: native) | protein stability index (treatment: MLN4924 1 uM, 8 h, c terminus: native) |
| --- | --- | --- | --- | --- |
| ILDDGTISAHKPLLISSCDWMAAM [RHOBTB2] | 2.29 ± 0.24 | 2.12 ± 0.19 | – | – |
| SHKRKRSSGSFCYCHPDSETDEDE [GMCL1] | 5.21 ± 0.4 | 5.34 ± 0.2 | – | – |
| LVSVYPDKYCPLLIKEGGMPLLRD [ZER1] | 2.38 ± 0.23 | 2.42 ± 0.29 | – | – |
| AENLDVKINENVAAGMRFPLPEAI [PCDHGA10] | 4.29 ± 0.2 | 4.28 ± 0.15 | – | – |
| DIEQFFNIGDSSSGLIQTVFISSY [SPNS1] | 2.68 ± 0.39 | 2.66 ± 0.8 | – | – |
| AMQASKATKITLSAIYKWITDNFC [FOXJ1] | 2.28 ± 0.27 | 2.14 ± 0.23 | – | – |
| KPSVDTEGPALVEIDRSVENTLLN [MIA2] | 4.99 ± 0.23 | 5.07 ± 0.26 | – | – |
| KIKEKYIDQEELNKTKPIWTRNPD [HSP90AB1] | 3.71 ± 0.26 | 3.96 ± 0.24 | – | – |
| ILGPAYFVTYVFFVFFVLLNMFLA [PKD2L1] | 2.88 ± 0.45 | 3.22 ± 0.3 | – | – |
| AGEEDPSGMVTIITGLPLDNPSVL [SMG5] | 3.7 ± 0.18 | 3.75 ± 0.19 | – | – |
| FSTVWLCWDMQGKRFVAMKVVKSA [SRPK2] | 2.46 ± 0.63 | 2.46 ± 0.28 | – | – |
| EDTHVQIGQVHEEFKQNIENVSVE [FCHO1] | 5.48 ± 0.27 | 5.49 ± 0.21 | – | – |
| MSGKSPVESSLNVKTKKNAPSATI [FBXO34] | 4.5 ± 0.22 | 4.6 ± 0.12 | – | – |
| GGTSVGSLGVPGSVGGVPGGTGSG [ZBTB22] | 4.41 ± 0.29 | 4.76 ± 0.088 | – | – |
| GLKPNSLYYFRLAARSPQGLGAST [PTPRD] | 1.89 ± 0.099 | 2.85 ± 1 | – | – |
| VSLHDRIYVIGGYDGRSRLSSVEC [KLHL12] | 1.96 ± 0.16 | 2.19 ± 0.17 | – | – |
| ALLKFKPGAFIAGVPVQPVLIRYP [LPCAT4] | 2.54 ± 0.73 | 2.39 ± 0.7 | – | – |
| IGNPPVGPIGGMMPPQPGIPQQQG [ZNF207] | 4.62 ± 0.28 | 4.53 ± 0.21 | – | – |
| MLIEELYAFMPARSQDPKKPSRV [CBY2] | – | – | 2.57 ± 0.46 | 2.55 ± 0.17 |
| AIAKQALKKPIKGKQAPRKKAQGK [KMT5A] | – | 4.02 ± 0.17 | – | – |
| AHIRAERDILVEADGAWVVKMFYS [STK38L] | 2.24 ± 0.3 | 2.27 ± 0.2 | – | – |
| SGERWLERYEIDSLIGKGSFGQVV [DYRK1B] | 2.97 ± 0.2 | 3.1 ± 0.25 | – | – |
| NCCLTLCNFSIPEELEFQYRRVNE [ZER1] | 2.55 ± 0.33 | 2.55 ± 0.14 | – | – |

| Sequence | protein stability index [1] | protein stability index [2] | protein stability index (treatment: DMSO, c terminus: native) | protein stability index (treatment: MLN4924 1 uM, 8 h, c terminus: native) |
| --- | --- | --- | --- | --- |
| VLYPVPLESYEDIHGTLHLERLAY [PRAME] | 2.31 ± 0.23 | 2.38 ± 0.36 | – | – |
| LETHFRDVSSTEEFLELSPQKLKE [GAN] | 5.38 ± 0.18 | 5.37 ± 0.084 | – | – |
| APHHHHHHSHSGPEISRIIVDPTT [PLK2] | 4.22 ± 0.12 | 4.12 ± 0.22 | – | – |
| PDDVDYATNPHVKPPYSYATLICM [FOXJ1] | 2.22 ± 0.28 | 2.2 ± 0.28 | – | – |
| FPDLLLTKRDSFLKRLYRAPIDWI [ALG2] | 2.27 ± 0.29 | 2.64 ± 0.52 | – | – |
| RGMATKLLARPGTGEHREFKLDKK [FBF1] | 4.47 ± 0.33 | 4.62 ± 0.13 | – | – |
| EEGTSDSNTGSESNSATVEEPPTD [SMARCE1] | 5.36 ± 0.44 | 5.67 ± 0.2 | – | – |
| TCSRVDYCLLSDHGCEYSCVNMDR [MATN2] | 2.84 ± 0.24 | 2.82 ± 0.32 | – | – |
| SAGKRGPDRGSPEYRQRRERNNIA [CEBPD] | 4.61 ± 0.2 | 4.41 ± 0.039 | – | – |
| ILNLTQALKDNKSPLHLVQMPPVI [PI4K2A] | 2.54 ± 0.27 | 2.35 ± 0.23 | – | – |
| KPSGALGSESYKSSAGSAEQTAPG [EHMT1] | 5.26 ± 0.39 | 5.43 ± 0.22 | – | – |
| NPELIKPKKLLNPVKASRSHQELH [FAM107A] | 4.21 ± 0.16 | 4.24 ± 0.26 | – | – |
| TLEKCEKVKTMEVTSVSIELEKNF [TRIM39] | 4.16 ± 0.21 | 4.15 ± 0.23 | – | – |
| SAESQGLDGAGLMGFVPHNGSLYG [ADAMTSL2] | – | 3.47 ± 1.6 | – | – |
| YDIEVNTRRAQADLAYQLQVAKTK [FLOT1] | 4.35 ± 0.18 | 4.33 ± 0.19 | – | – |
| ELAEIFRASGEHVTDEEIESLMKD [TNNC2] | 5 ± 0.41 | 5.34 ± 0.33 | – | – |
| EEFNVLEMEVMRRQLYAVNRRLRA [FATE1] | 2.92 ± 0.21 | 3.1 ± 0.5 | – | – |
| VAFVCAFSEALAEGAVKMGMPSSL [PYCR3] | 3.46 ± 0.41 | 2.42 ± 0.36 | – | – |
| DQLFMQEKARQLLGRLKPSHTSRT [MYBL2] | 3.29 ± 0.27 | 3.76 ± 0.43 | – | – |
| QTSSSSSQSETSSAVSTPSPVTRT [DLC1] | 5.45 ± 0.22 | 5.28 ± 0.38 | – | – |
| AGTGAQAGQLMGFFKGIDQDIERG [LYSMD4] | 4.01 ± 0.37 | 4.01 ± 0.29 | – | – |
| LTRAGMSYYNSPGLHVQHMGTSHG [CCDC6] | 2.67 ± 0.2 | 2.81 ± 0.12 | – | – |
